In the supplement of paper PMC7877785:
± gives the uncertainty stated by the source.

Assay: self-splicing fitness, log relative to wild type (ln ratio); higher = more splicing; Tetrahymena group I intron in knt gene, E. coli kanamycin selection, DiMSum; sequences stand for … in CUCUCU…GGAGGGAAAAGUUAUCAGGCAUGCACCUGGUAGCUAGUCUUUAAACCAAUAGAUUGCAUCGGUUUAAAAGGCAAGACCGUCAAAUUGCGGGAAAGGGGUCAACAGCCGUUCAGUACCAAGUCUCAGGGGAAACUUUGAGAUGGCCUUGCAAAGGGUAUGGUAAUAAGCUGACGGACAUGGUCCUAACCACGCAGCCAAGUCCUAAGUCAACAGAUCUUCUGUUGAUAUGGAUGCAGUUCACAGACUAAAUGUCGGUCGGGGAAGAUGUAUUCUUCUCAUAAGAUAUAGUCGGACCUCUCCUUAAUGGGAGCUAGCGGAUGAAGUGAUGCAACACUGGAGCCGCUGGGAACUAAUUUGUAUGCGAAAGUAUAUUGAUUAGUUUUGGAGUACUCGUGGUCG
Outline: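 Pooled colonies went to amplicon sequencing on an Illumina HiSeq 2500 after six replicate transformations. The plates were LB agar with 100 μg/mL carbenicillin, 50 μM IPTG and 0.2% rhamnose, with or without 25 μg/mL kanamycin, incubated overnight at 37°C or 30°C. The E. coli BL21(DE3) library had all eight P1ex-region intron nucleotides randomised, the intron placed in the knt kanamycin-resistance gene on pET-22b(+). DiMSum fitness is the error-weighted combination of replicate fold changes, kanamycin against none, normalised to wild type.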

Sequence | self-splicing fitness (ln) (30 °C) | self-splicing fitness (ln) (37 °C)
GAGAAGCAAUAUUACGAGGA | -3.83 ± 0.33 | -2.11 ± 0.19
GAGAAGCAAUAUUACGAGGG | -3.49 ± 0.17 | -2.99 ± 0.19
GAGAAGCAAUAUUACGCAAG | -1.6 ± 0.2 | -0.212 ± 0.21
GAGAAGCAAUAUUACGCACC | -1.91 ± 0.28 | -1.41 ± 0.42
GAGAAGCAAUAUUACGCAUC | -3.12 ± 0.43 | -2.6 ± 0.35
GAGAAGCAAUAUUACGCCAC | – | -0.779 ± 0.37
GAGAAGCAAUAUUACGCCUU | -2.46 ± 0.26 | -0.767 ± 0.27
GAGAAGCAAUAUUACGCUGU | -3.35 ± 0.3 | -1.45 ± 0.29
GAGAAGCAAUAUUACGCUUG | -2.34 ± 0.1 | -0.658 ± 0.13
GAGAAGCAAUAUUACGGGGC | -3.04 ± 0.19 | -3.05 ± 0.23
GAGAAGCAAUAUUACGUGUG | -2.18 ± 0.12 | -1.96 ± 0.15
GAGAAGCAAUAUUACGUUAU | -3.33 ± 0.19 | -2.47 ± 0.16
GAGAAGCAAUAUUACGUUGA | -3.28 ± 0.21 | -1.19 ± 0.17
GAGAAGCAAUAUUACGUUGC | -3.47 ± 0.24 | -3.31 ± 0.31
GAGCAGCAAUAUUACGAACA | -1.47 ± 0.12 | -1.07 ± 0.15
GAGCAGCAAUAUUACGACUU | -0.557 ± 0.11 | -0.841 ± 0.14
GAGCAGCAAUAUUACGAGGG | – | -2.81 ± 0.38
GAGCAGCAAUAUUACGAUCA | -2.14 ± 0.15 | -1.99 ± 0.15
GAGCAGCAAUAUUACGAUUA | -2.26 ± 0.15 | -1.13 ± 0.12
GAGCAGCAAUAUUACGCAGU | -3.57 ± 0.2 | -1.4 ± 0.17
GAGCAGCAAUAUUACGCCAA | -1.55 ± 0.29 | -1.43 ± 0.31
GAGCAGCAAUAUUACGCCGG | -4.11 ± 0.39 | -1.82 ± 0.3
GAGCAGCAAUAUUACGCGAC | -3.05 ± 0.49 | -1.13 ± 0.29
GAGCAGCAAUAUUACGCUAG | -2.4 ± 0.14 | -1.53 ± 0.17
GAGCAGCAAUAUUACGCUAU | -2.73 ± 0.27 | -1.93 ± 0.17

Sequence | self-splicing fitness (ln) (30 °C) | self-splicing fitness (ln) (37 °C)
GAGCAGCAAUAUUACGCUCA | -2.14 ± 0.2 | -1.91 ± 0.16
GAGCAGCAAUAUUACGCUGG | -3 ± 0.16 | -1.47 ± 0.16
GAGCAGCAAUAUUACGGAGC | -3.14 ± 0.13 | -0.471 ± 0.11
GAGCAGCAAUAUUACGGCAA | -0.276 ± 0.062 | -0.126 ± 0.072
GAGCAGCAAUAUUACGGCGA | -1.21 ± 0.099 | -0.604 ± 0.11
GAGCAGCAAUAUUACGGUAU | -2.9 ± 0.11 | -1.34 ± 0.1
GAGCAGCAAUAUUACGGUGG | -3.9 ± 0.2 | -2.31 ± 0.16
GAGCAGCAAUAUUACGGUUG | -3.18 ± 0.17 | -1.99 ± 0.16
GAGCAGCAAUAUUACGUAUA | -3.2 ± 0.27 | -2.97 ± 0.27
GAGCAGCAAUAUUACGUAUG | -2.86 ± 0.14 | -2.5 ± 0.2
GAGCAGCAAUAUUACGUCAC | -3.67 ± 0.18 | -1.3 ± 0.17
GAGCAGCAAUAUUACGUGUC | -2.9 ± 0.12 | -2.01 ± 0.12
GAGGAGCAAUAUUACGAGUG | -2.88 ± 0.35 | -2.5 ± 0.23
GAGGAGCAAUAUUACGCAUG | -3.19 ± 0.48 | -2.65 ± 0.3
GAGGAGCAAUAUUACGCUCG | -1.49 ± 0.14 | -1.26 ± 0.22
GAGGAGCAAUAUUACGCUUC | – | -3.68 ± 0.46
GAGGAGCAAUAUUACGCUUG | -1.28 ± 0.15 | -1.27 ± 0.2
GAGGAGCAAUAUUACGGCCG | – | -1.55 ± 0.39
GAGGAGCAAUAUUACGGCUU | -3.52 ± 0.37 | -2.39 ± 0.25
GAGGAGCAAUAUUACGGGUG | -3.55 ± 0.27 | -1.95 ± 0.32
GAGGAGCAAUAUUACGGUCC | -2.95 ± 0.16 | -0.994 ± 0.2
GAGGAGCAAUAUUACGGUUU | -2.44 ± 0.13 | -2.28 ± 0.16
GAGGAGCAAUAUUACGUACU | -2.16 ± 0.16 | -0.205 ± 0.19
GAGGAGCAAUAUUACGUCAA | -2.72 ± 0.31 | –
